Reference: patent publication US20150152398, “Endoribonuclease and Methods of Use Thereof” (The Regents of the University of California, published 2015)

How the values were obtained:
[1] = molecular target: T1, TtCas6A (TTHA0078, Cas6) (Thermus thermophilus HB8); assay: structure; crystal structure of substrate mimic complex, 2:1 in crystal; details: chain copies: 2 stated (dimer in solution); hairpin
T1 chain: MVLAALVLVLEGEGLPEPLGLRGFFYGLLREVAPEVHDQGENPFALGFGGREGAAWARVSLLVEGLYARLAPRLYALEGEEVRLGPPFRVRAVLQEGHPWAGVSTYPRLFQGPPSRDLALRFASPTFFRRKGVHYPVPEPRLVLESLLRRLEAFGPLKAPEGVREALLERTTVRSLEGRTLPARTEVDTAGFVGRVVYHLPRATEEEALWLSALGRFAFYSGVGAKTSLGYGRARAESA
Description: (§1) To determine how TtCas6A and TtCas6B bind and cleave their RNA substrates, we solved crystal structures of these proteins both alone and in complexes with their cognate RNAs (FIG. 23A, FIG. 30). For TtCas6A, we obtained a structure of the enzyme bound to a substrate mimic based on the R1 repeat sequence, consisting of the R1 stem-loop flanked by two additional nucleotides on either end of the stem. Cleavage of the substrate mimic RNA was prevented by introducing a 2′-deoxyribonucleotide at the G28 position, thereby removing the 2′-hydroxyl nucleophile required for the cleavage reaction. In addition to the substrate mimic complex, a crystal structure of a complex of TtCas6A and a cleaved RNA product was obtained when full-length R1 repeat was bound to wild-type TtCas6A and allowed to undergo cleavage during subsequent complex purification and crystallization. Finally, we determined the crystal structure of the TtCas6A H37A mutant, lacking a critical active site residue, in the absence of bound RNA. For TtCas6B, we determined crystal structures of the wild-type enzyme alone and in complex with a product of the R3 repeat cleavage reaction.

[2] = molecular target: T1, TtCas6A (TTHA0078, Cas6); assay: EMSA; Kd in FIG. 25D only; details: chain copies: 2 stated (dimer in solution); hairpin
[3] = molecular target: T1, TtCas6A (TTHA0078, Cas6); assay: EMSA; deletion of nt 1-8 had little effect on affinity; details: chain copies: 2 stated (dimer in solution); hairpin
[4] = molecular target: T2, TtCas6A H37A (Thermus thermophilus HB8, H37A); assay: cleavage_in_vitro; almost inactive; rate enhanced about 360-fold with 500 mM imidazole; details: chain copies: 2 inferred; hairpin
T2 chain: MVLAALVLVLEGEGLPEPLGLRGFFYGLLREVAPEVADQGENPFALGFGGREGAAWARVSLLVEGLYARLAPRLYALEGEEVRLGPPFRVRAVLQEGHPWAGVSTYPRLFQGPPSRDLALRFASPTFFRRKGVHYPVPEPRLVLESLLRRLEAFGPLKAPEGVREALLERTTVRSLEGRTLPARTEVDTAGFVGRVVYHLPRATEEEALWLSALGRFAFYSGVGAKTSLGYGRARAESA
Description: (§2) Sites of cleavage are indicated with blue arrows. TtCas6e (TTHB192) cleaves repeat R2, while TtCas6A (TTHA0078) and TtCas6B (TTHB231) both cleave repeats R1 and R3. (B) Cleavage product binding affinities of TtCas6A and TtCas6B enzymes. Maltose binding protein (MBP)-fused TtCas6A or TtCas6B were bound to in 5′-radiolabelled, vitro transcribed R1 and R3 RNAs. Bound and unbound fractions were resolved by electrophoresis on a native polyacrylamide gel and visualized by phosphorimaging. The data for these and all subsequent binding assays were fit with standard binding isotherms (solid line). Error bars on each data point denote standard error of the mean (SEM) from three independent experiments. (C) Experiments to confirm single turnover. RNA cleavage assays were carried out at indicated protein:RNA ratios. RNA cleavage was monitored using denaturing polyacrylamide gel electrophoresis. […]
(§3) To shed light on the catalytic mechanism of TtCas6A and TtCas6B, we performed cleavage assays using wild type proteins as well as active site mutants TtCas6A H37A and TtCas6B H42A using repeat R1 as a substrate (FIG. 2C). The first order rate constant determined under single-turnover conditions for wild type TtCas6A (3.2 min⁻¹) and TtCas6B (3.7 min⁻¹) are in good agreement with first order rate constants previously determined for PaCas6f and TtCas6e. […]

[5] = molecular target: T3, TtCas6B H42A (Thermus thermophilus HB8, H42A); assay: cleavage_in_vitro; repeat R1; details: chain copies: 2 inferred; hairpin
T3 chain: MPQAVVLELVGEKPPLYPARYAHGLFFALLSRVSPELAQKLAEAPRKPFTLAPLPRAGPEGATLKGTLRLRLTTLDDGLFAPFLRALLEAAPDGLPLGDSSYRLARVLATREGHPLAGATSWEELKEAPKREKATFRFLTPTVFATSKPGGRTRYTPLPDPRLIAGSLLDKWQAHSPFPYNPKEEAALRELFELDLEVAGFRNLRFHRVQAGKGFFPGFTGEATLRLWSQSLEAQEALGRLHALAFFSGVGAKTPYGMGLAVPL
Description: as §2, with “FIG. 22 illustrates that TtCas6A and TtCas6B both cleave repeats R1 and R3 and retain their cleaved products. (A) Sequences and predicted secondary structures of T. thermophilus CRISPR repeats. Sites” for “Sites”, “Error bars on each data point denote standard error of the mean (SEM) from three independent experiments. (C) Experiments to confirm single turnover. RNA cleavage assays were carried out at indicated protein:RNA ratios.” left out
as §3

[6] = molecular target: T1, TtCas6A (TTHA0078, Cas6); assay: 5' truncation series, FIG. 5; details: chain copies: 2 stated (dimer in solution); hairpin
[7] = molecular target: T4, TtCas6B (TTHB231, Cas6) (Thermus thermophilus HB8); assay: structure; crystal structure of R3 product complex, 2:2; details: chain copies: 2 stated (dimer in solution); label: 5'-32P (EMSA); hairpin
T4 chain: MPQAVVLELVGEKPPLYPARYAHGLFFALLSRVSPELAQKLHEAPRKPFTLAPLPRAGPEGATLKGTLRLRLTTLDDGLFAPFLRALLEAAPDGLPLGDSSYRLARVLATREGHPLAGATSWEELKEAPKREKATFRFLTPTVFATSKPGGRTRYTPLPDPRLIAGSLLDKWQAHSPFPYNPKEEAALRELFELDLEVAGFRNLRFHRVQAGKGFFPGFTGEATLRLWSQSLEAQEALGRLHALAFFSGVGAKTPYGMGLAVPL

[8] = molecular target: T1, TtCas6A (TTHA0078, Cas6); assay: structure; crystal structure of cleaved R1 product complex, 2:1 in crystal; details: chain copies: 2 stated (dimer in solution); label: 5'-32P (EMSA); hairpin
Description: as §1

B1: R1 substrate mimic (nt 15-30, 2'-deoxy G28) (ssRNA)
RNA: AGCCCCGUAAGGGGAU
modifications: 2'-deoxy at G28
B1: binds [1].

B2: R1 deletion of nt 1-13 (ssRNA)
RNA: GAGCCCCGUAAGGGGAU
With B2 the “fold increase in Kd relative to full R1” value [2] was ~900 fold higher Kd than full R1.

B3: R1 deletion of nt 1-8 (ssRNA)
RNA: GGAUUGAGCCCCGUAAGGGGAU
B3: binds [3].

B4: R1 nt 1-30 (ssRNA)
RNA: GUUGCAAGGGAUUGAGCCCCGUAAGGGGAU
Work on B4 yielded an activity [4] of about 17000 fold cleavage defect and an activity [5] of about 300 fold cleavage defect.

B5: R1 nt 7-29 (ssRNA)
RNA: AGGGAUUGAGCCCCGUAAGGGGA
For B5, the binding signal [6] was 2.3 fold stronger than nt 8-29.

B6: R3 repeat RNA (Tt_R2 in Example 1) (ssRNA)
RNA: GUUGCAAACCUCGUUAGCCUCGUAGAGGAUUGAAAC
B6: binds [7].

B7: R1 repeat RNA (Tt_R1) (ssRNA)
RNA: GUUGCAAGGGAUUGAGCCCCGUAAGGGGAUUGCGAC
B7: binds [8].
